Results as given in patent publication US7517949B2, “Livin-derived peptides, compositions and uses thereof” (Hadasit Medical Research Services & Development Ltd., priority 2003, dated 2009).
Entries after “also recorded” stand apart in the source; their conditions may differ. Residues, ends and D or L forms follow the SMILES beside them. *: point of attachment. Cbz = O=C(OCc1ccccc1)*; CH2F = FC*

B1: Livin β: full-length Livin isoform β, IAP family member, about 37 kDa (protein, listed as Homo sapiens)
chain: MGPKDSAKCLHRGPQPSHWAAGDGPTQERCGPRSLGSPVLGLDTCRAWDHVDGQILGQLRPLTEEEEEEGAGATLSRGPAFPGMGSEELRLASFYDWPLTAEVPPELLAAAGFFHTGHQDKVRCFFCYGGLQSWKRGDDPWTEHAKWFPSCQFLLRSKGRDFVHSVQETHSQLLGSWDPWEEPEDAAPVAPSVPASGYPELPTPRREVQSESAQEPGARDVEAQLRRLQEERTCKVCLDRAVSIVFVPCGHLVCAECAPGLQLCPICRAPVRSRVRTFLS
B2: p30-Livin α: Livin α-derived peptide, cleavage product, C-terminal subunit of about 30 kDa with BIR and RING domains (protein, listed as Homo sapiens)
chain: GQILGQLRPLTEEEEEEGAGATLSRGPAFPGMGSEELRLASFYDWPLTAEVPPELLAAAGFFHTGHQDKVRCFFCYGGLQSWKRGDDPWTEHAKWFPSCQFLLRSKGRDFVHSVQETHSQLLGSWDPWEEPEDAAPVAPSVPASGYPELPTPRREVQSESAQEPGGVSPAEAQRAWWVLEPPGARDVEAQLRRLQEERTCKVCLDRAVSIVFVPCGHLVCAECAPGLQLCPICRAPVRSRVRTFLS
B3: p28-Livin β: Livin β-derived peptide, cleavage product, C-terminal subunit of about 28 kDa with BIR and RING domains (protein, listed as Homo sapiens)
chain: GQILGQLRPLTEEEEEEGAGATLSRGPAFPGMGSEELRLASFYDWPLTAEVPPELLAAAGFFHTGHQDKVRCFFCYGGLQSWKRGDDPWTEHAKWFPSCQFLLRSKGRDFVHSVQETHSQLLGSWDPWEEPEDAAPVAPSVPASGYPELPTPRREVQSESAQEPGARDVEAQLRRLQEERTCKVCLDRAVSIVFVPCGHLVCAECAPGLQLCPICRAPVRSRVRTFLS
B4: Livin α: full-length Livin isoform α, IAP family member, about 39 kDa (protein, listed as Homo sapiens)
chain: MGPKDSAKCLHRGPQPSHWAAGDGPTQERCGPRSLGSPVLGLDTCRAWDHVDGQILGQLRPLTEEEEEEGAGATLSRGPAFPGMGSEELRLASFYDWPLTAEVPPELLAAAGFFHTGHQDKVRCFFCYGGLQSWKRGDDPWTEHAKWFPSCQFLLRSKGRDFVHSVQETHSQLLGSWDPWEEPEDAAPVAPSVPASGYPELPTPRREVQSESAQEPGGVSPAEAQRAWWVLEPPGARDVEAQLRRLQEERTCKVCLDRAVSIVFVPCGHLVCAECAPGLQLCPICRAPVRSRVRTFLS

Tests used:
[1] = test system: Livin cleavage in Jurkat cells; assay: Livin cleavage in Jurkat cells pre-incubated with caspase inhibitors (Western blot); format: cell-based, human; details: Jurkat cells pre-incubated with inhibitor prior to treatment
Protocol: FIG. […]
Whole cell lysates were prepared using lysis buffer (Tris-HCl 20 mM, EDTA 2 mM, β-2-Mercaptoethanol 6 mM, NP-40 1%, SDS 0.1%). Protease inhibitors included: PMSF 1 mM, Protease inhibitor cocktail (Sigma) diluted 1:10, and Complete inhibitor cocktail (Roche, Germany) diluted 1:25. About 0.25-1×10^6 cells were lysed in a total volume of 100 μl, incubated at 4° C. for 20 minutes with vigorous vortexing. Protein content was assessed by Bradford assay (Bio-Rad, Germany), according to the manufacturer's instructions. Samples were resolved on a 10% Bis-Tris pre-cast gel, following the manufacturer's instructions (Invitrogen, USA). After transferring the gel to a PVDF membrane (Millipore, Mass. USA), the membrane was exposed to the antibodies in blocking solution (PBS 1% Casein, 0.05% Tween 20) for 1 hour, followed by three 5-minute washes with PBS. The monoclonal antibody against Livin (clone:88C570) was purchased from Imgenex, and diluted 1:3000 in blocking solution. Survivin 6E4 monoclonal antibody was used according to the manufacturer's recommendation. […]
Cells were incubated with caspase inhibitors for 1-2 hour prior to treatment with the apoptotic stimuli. […] Caspase 9 activity was assessed using caspase-9 colorimetric substrate LEHD-pNA (Biovision, Calif., USA). […]

Jurkat cells [2] = assay: Protection of Livin-expressing cells from drug-induced apoptosis; format: cell-based, human
Protocol: Primary cultures of melanoma cells were tested for the expression of Livin, XIAP and Survivin. XIAP and Survivin were widely expressed in most of the melanoma samples tested. On the other hand, Livin was expressed at variable levels, in 10 out of the 27 melanoma samples.
To further explore the cleavage of each isoform, retroviral infection to establish a Jurkat T-cell Leukemia/Lymphoma cell line and an EBV-transformed B cell line 721.221, expressing high, stable levels of either Livin α or β were used. […] A panel of the three drugs etoposide, staurosporine, and anti-CD95/Fas ligand was thus used to induce apoptosis in the transfected Jurkat and 721.221 cells. Similar results were observed when cells were treated with anti-CD95/Fas antibody (data not shown). The correlation between the timing of the cleavage and apoptosis rate was further investigated.

Jurkat cells [3] = details: cited from earlier work
293T cells = assay: Spontaneous apoptosis of transiently transfected 293T cells (Annexin V/PI flow cytometry of GFP-positive cells); format: cell-based, human; details: 24 hours post-transfection, in comparison to full-length proteins or empty vector
Protocol: FIG. 6c: 293T cells were transiently transfected with the indicated plasmids. 24 hours post-transfection, cells were harvested and analyzed by flow cytometry. Apoptosis of GFP-positive cells was analyzed by Annexin-V/PI stain.
(§1) Transfection with the pIRES2-EGFP plasmid (QIAGEN, Germany) encoding p30-Livin α or p28-Livin β, and as positive controls, the full length wild type cDNA of either Livin α or β was done either by electroporation, in 721.221 cells [Mandelboim, O. et al. (1996) J. Exp. Med., 184: 913-922], or using PolyFect (QIAGEN), in human embryonic kidney 293T cells, according to manufacturers instructions. […] Thus, cells transfected with this plasmid may be monitored for transfection by the absence or presence of the GFP signal.
(§2) Nuclear morphology was visualized using acridin orange (Sigma) staining as described [Loo, D. T. et al. (1998) Methods Cell Biol., 57: 251-264]. […] The percentage of apoptotic to viable cells was counted by fluorescence microscopy and 500 cells were scored for each sample. […] Cells transfected with a GFP-containing plasmid were analyzed using Annexin-V-Cy5 and PI staining according to the manufacturer instructions (MBL, Japan). In stably transfected cultures with a rate of GFP-positive cells higher than 95%, all cells were analyzed for apoptosis. […]

721.221 cells = assay: Apoptosis of stably transfected 721.221 cells after anti-CD95/Fas treatment (nuclear morphology, acridine orange); format: cell-based; details: 0.1 μg/ml anti-CD95/Fas antibody, 18 hours, compared with wild type 721.221 cells
Protocol: FIG. 6a: 721.221 cells stably expressing either Livin α or […], and wild type 721.221 cells, were treated with 0.1 μg/ml anti-CD95/Fas antibody for 18 hours. Nuclear morphology was visualized using acridine orange staining and used for determining apoptosis rate.
as §1, §2

LB33 Mel A1 cells = assay: Cell death of transiently transfected LB33 Mel A1 cells (PI stain of GFP-positive cells); format: cell-based, human; details: data not shown; for induction of apoptosis by transient transfection: in comparison to full-length counterparts or control
Protocol: At the indicated times post transfection cells were analyzed for GFP percent as a marker of transfection, and the GFP-positive population was further analyzed for cell death using PI stain.

Row | Molecule | cleavage of Livin [1] | rate of spontaneous apoptosis (293T cells) | rate of apoptosis following anti-CD95/Fas treatment (721.221 cells) | induction of apoptosis by transient transfection (LB33 Mel A1 cells) | also measured
1 | CC[C@H](C)[C@H](NC(=O)[C@H](CCC(=O)O)NC(=O)[C@@H](NC(C)=O)C(C)C)C(=O)N[C@H](C=O)CC(=O)O [caspase 6 inhibitor] (Ac-VEID-aldehyde) | not |  |  |  | 
2 | COC(=O)C[C@H](NC(=O)[C@H](C)NC(=O)[C@@H](NC(=O)OCc1ccccc1)C(C)C)C(=O)CF [zVAD-FMK] (Cbz-Val-Ala-Asp(OMe)-CH2F) | significantly diminished the cleavage of Livin |  |  |  | 
3 | B1 |  |  |  |  | protection against other chemotherapeutic agents (Jurkat cells [2]; Jurkat cells, Daunorubicin, Fludarabine and Cytosine arabinoside, unpublished data): protect Jurkat cells; inhibition of etoposide-induced apoptosis (Jurkat cells [3]; previously demonstrated by the inventors (Ashhab 2001)): inhibit etoposide-induced apoptosis; also recorded: can only block etoposide-induced apoptosis
4 | B2 |  | significantly higher rate of spontaneous apoptosis | gained significant pro-apoptotic activity; also recorded: much higher rate of apoptosis | sufficient to induce apoptosis | 
5 | B3 |  | significantly higher rate of spontaneous apoptosis |  | sufficient to induce apoptosis | rate of apoptosis, p28-Livin β relative to p30-Livin α (LB33 Mel A1 cells; all time points tested): more potent pro-apoptotic agent than p30-Livin α; also recorded: much higher rate of apoptosis than p30-Livin α
6 | B4 |  |  | lower rate of apoptosis |  | protection from staurosporine-induced apoptosis (Jurkat cells [2]): can protect from staurosporine-induced apoptosis; protection against anti-CD95/Fas antibody-induced apoptosis (Jurkat cells [3]; inventors' previous work (Ashhab 2001)): able to protect from apoptosis
